From publication PMC3961393, “Progranulin-Derived Atsttrin Directly Binds to TNFRSF25 (DR3) and Inhibits TNF-Like Ligand 1A (TL1A) Activity” (PLoS ONE, 2014) come the findings set out here.

The target of assay [1] is T1, Recombinant hPGRN (human, UniProt P28799 18-593).
T1 construct: human progranulin, recombinant; also called Progranulin; source: bought: Adipogen (Cat. No. AG-40A-0188)
T1 sequence (looked up): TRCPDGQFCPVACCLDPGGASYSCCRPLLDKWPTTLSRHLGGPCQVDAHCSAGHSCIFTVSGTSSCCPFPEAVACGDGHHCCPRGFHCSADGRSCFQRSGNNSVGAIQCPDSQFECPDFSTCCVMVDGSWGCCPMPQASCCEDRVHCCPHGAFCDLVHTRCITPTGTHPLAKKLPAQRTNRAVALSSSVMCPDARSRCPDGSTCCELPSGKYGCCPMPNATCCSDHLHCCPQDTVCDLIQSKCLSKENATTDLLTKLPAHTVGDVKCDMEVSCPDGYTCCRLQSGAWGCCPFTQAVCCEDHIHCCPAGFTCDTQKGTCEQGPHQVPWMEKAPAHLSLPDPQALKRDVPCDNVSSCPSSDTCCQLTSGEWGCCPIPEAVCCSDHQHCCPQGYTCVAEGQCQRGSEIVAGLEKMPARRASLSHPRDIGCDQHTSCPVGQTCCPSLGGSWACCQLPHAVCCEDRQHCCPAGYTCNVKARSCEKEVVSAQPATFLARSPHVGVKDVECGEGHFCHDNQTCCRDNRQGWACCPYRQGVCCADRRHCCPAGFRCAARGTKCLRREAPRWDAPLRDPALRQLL
Kind of assay: ELISA; solid phase binding assay: various dose of Atsttrin or progranulin coated on the plate overnight, biotinylated TNFR2, DR3 or BSA added, detected with avidin-HRP, OD 450 nm. As to conditions: both partners purified.

The target in assay [2] is T2, Recombinant protein hTL1A (human, UniProt O95150 72-251).
T2 construct: human TL1A, recombinant; also called TNF-Like Ligand 1A; source: bought: R&D system (Cat# 1319-TL-010)
T2 sequence (looked up): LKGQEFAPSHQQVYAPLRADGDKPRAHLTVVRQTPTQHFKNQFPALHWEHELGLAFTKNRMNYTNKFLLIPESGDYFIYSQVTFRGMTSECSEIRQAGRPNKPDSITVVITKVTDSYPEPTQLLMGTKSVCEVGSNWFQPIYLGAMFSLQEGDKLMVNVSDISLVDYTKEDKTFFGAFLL
Kind of assay: ELISA; solid phase inhibition assay: 100 ng of TNFa or TL1A coated overnight, 100 ng of TNFR2 or DR3 added together with various dose of Atsttrin, bound receptor detected by anti-TNFR2 or anti-DR3 antibody and HRP secondary antibody. The settings on record: both partners purified.

B1: recombinant extracellular portion of hDR3 (domain or fragment, human, UniProt Q93038 25-199, looked up)
chain: QGGTRSPRCDCAGDFHKKIGLFCCRGCPAGHYLKAPCTEPCGNSTCLVCPQDTFLAWENHHNSECARCQACDEQASQVALENCSAVADTRCGCKPGWFVECQVSQCVSSSPFYCQPCLDCGALHRHTRLLCSRRDTDCGTCLPGFYEHGDGCVSCPTSTLGSCPERCAAVCGWRQ
modifications: biotinylated (site not stated) in the direct solid phase binding assay; biotin is not mentioned for the inhibition assay
notes: human DR3 (TNFRSF25), recombinant extracellular portion; As I recall, this catalogue item is an Fc chimera; also called DR3 extracellular portion; TNFRSF25; source: bought: R&D system (Cat# 943-D3-050)
In the case of B1, the binding result in assay [1] and in assay [2] was “binds” throughout.
